# Data as given in the nanobody polyreactivity screen of Harvey et al. (2022).
# Experiment: yeast display, Sf9 membrane polyspecificity reagent, FACS + sequencing; frameworks hold sequencing errors
# In short: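 Synthetic nanobody libraries on Saccharomyces cerevisiae BJ5465 were galactose-induced for 36–48 hours, stained 1 hour at 4 °C with 10% biotinylated, detergent-solubilized Sf9 membrane reagent and enriched on streptavidin microbeads. FACS then separated cells into low and high (top ~1%) gates by anti-HA (expression) and streptavidin (reagent binding) fluorescence. Genes were colony-PCR amplified, MiSeq 2 × 250 sequenced and CDR-length filtered. A clone's polyreactivity label is that of its gate of origin.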
row,Sequence,polyreactivity (PSR sort gate)
1,QVQLVESGGGLVQAGGSLRLSCAASGRTFGQYAMGWYRQAPGKEREFVAAITSSGGSTYYADSVNGRFTISRDNAKNTVYLLMNSLNPEDTAVYYCAAPISRSAGWDSYDYWGQGTQVTVSS,low polyreactivity
2,QVQLVESGGGLVQAGGSLRLSCAASGRTFGQYVMGWYREAPGKERELVAAIRSGGSTYYADSVKGRFTISRDNAKNTVYLQMNSLKPEDTAVYYCANETYYGTDNFGQVGGEMDYWGQGTQVTVSS,low polyreactivity
3,QVQLVESGGGLVQAGGSLRLSCAASGRTFGRNAMGWYRQAPGKERELVAAISLRGGRTYYADSVKGRFTISRDNAKNTVYLQMNSLKPEDTAVYYCAAVQPVGLYPRTKYYYWGQGTQVTVSS,high polyreactivity
4,QVQLVESGGGLVQAGGSLRLSCAASGRTFGRNAMGWYRQAPGKERELVAAISSSADRTYYADSVKGRFTISRDNAKNNVYVEMNSLKPEDTAVYYCAARTFWGAYDYWGQGTQVTVSS,high polyreactivity
5,QVQLVESGGGLVQAGGSLRLSCAASGRTFGRNAMGWYRQAPGKERELVAAISSSGGRTYYADSVKGRFTISRDNAKNTVYLQMNSLKPEDTAVYYCNALTYYRDYWGQGTQVTVSS,high polyreactivity
6,QVQLVESGGGLVQAGGSLRLSCAASGRTFGRNAMGWYRQATGKERELVAPISRDGSTYYADSVKGRFTISRDNAKNTVYLQMNSLKPEDTAVYYCAADRPWYYTLTPIHGYDYWGQGTQVTVSS,low polyreactivity
7,QVQLVESGGGLVQAGGSLRLSCAASGRTFGRNVMGWYRQAPGKERELVAAISRSGGSTYYADSVKGRFTISRDNAKNTVYLQINSLKPEDTAVYYCAAYSVGDYYWGQGTQVTVSS,high polyreactivity
8,QVQLVESGGGLVQAGGSLRLSCAASGRTFGRYALGWYRQAPGKERELVATITSGGSTNYADSVKGRFTISRDNAKNTVYLQMNSLKPEDTAVYYCAAEFSPSRWAYSEGALRYNYWGQGTQVTVSS,low polyreactivity
9,QVQLVESGGGLVQAGGSLRLSCAASGRTFGRYAMGGYRQAPGKERELVAAINSGGSTYYADSVKGRFTISRDNAKNTVYLQMNSLKPEDTAVYYCAADWYYWGFIFDYWGQGTQVTVSS,high polyreactivity
10,QVQLVESGGGLVQAGGSLRLSCAASGRTFGRYAMGWSRQAPGKERELVATITSGGSTNYADSVKGRFTISRDNAKNTVYLQMNSLKPEDTAVYYCAAEFSPSRWAYSEGALRYNYWGQGTQVTVSS,low polyreactivity
11,QVQLVESGGGLVQAGGSLRLSCAASGRTFGRYAMGWYRQAPGKEREFVASMSRRGGTTYYADSVKGRFTISRDNEKNTVYLQMNSLNPEDTAVYYCNADRTVIYDYEYWGQGTQVTVSS,low polyreactivity
12,QVQLVESGGGLVQAGGSLRLSCAASGRTFGRYAMGWYRQAPGKERELVAAINRGGSTKYADSVKGRFTISRDNAKNTVYLQRNSQKPEDSAVYYCAKDLHPALHYDYWGQGTQVTVSS,low polyreactivity
13,QVQLVESGGGLVQAGGSLRLSCAASGRTFGRYAMGWYRQAPGKERELVAAISWSGGSTYYADSVKGRFTISRDNAKNSVYLQMNSLKPEDTAVYYCAAYEHVYVYDYWGQGTQVTVSS,low polyreactivity
14,QVQLVESGGGLVQAGGSLRLSCAASGRTFGRYAMGWYRQAPGKERELVAAISYSTDSTYYADSVKGRFTISRDNAKNTVYLQMNSLKPEDTAVYYCASDSVIVGSYVGDKHDYWGQGTQVTVSW,low polyreactivity
15,QVQLVESGGGLVQAGGSLRLSCAASGRTFGRYAMGWYRQAPGKERELVAVISWSDGGTNYADSVKGRFTISRDNAKNTVYLQMNSLKPEDTAVYYCNAELSFRYPVFRELDYWGQGTQVTVSS,low polyreactivity
16,QVQLVESGGGLVQAGGSLRLSCAASGRTFGRYAMGWYRQAPWKERELVAAITVGGGSTYYADSVKGRFTISRDNAKNTVYLQMNSLKPEDTAVYYCNALHTYTYRYDYYYWGQGTQVTVSS,high polyreactivity
17,QVQLVESGGGLVQAGGSLRLSCAASGRTFGRYTMGWYRQAPGKERELVAAITGRGGSTFYADSVKGRFTISRDYAKNTVYLQMNSLKPEDTAVYYCAARRTSIKDQFYYWGQGTQVTVSS,high polyreactivity
18,QVQLVESGGGLVQAGGSLRLSCAASGRTFGRYVMGWYIQAPGKERELVARISSAGGTNYADSVKGRFTISRDNAKNTVYLQMNSLKPEDTAVYYCNFTRYWRAHLGYYWGQGTQVTVSS,high polyreactivity
19,QVQLVESGGGLVQAGGSLRLSCAASGRTFGSNAMGWFIQAPGKERELVAAISSSDSTNYADSVKGRFTISRDNAKNTVYLQMNSLKPEETAVYYCNAGHPVRSPGYDYWGQGTQVTVSS,low polyreactivity
20,QVQLVESGGGLVQAGGSLRLSCAASGRTFGSNAMGWYRQAPGKERELVAAIRWGGGSTYYADSVKGRFTISRDNAKNTVYLQMNSLKPEDTAVYYCAAAYNWRKYDYWGQGTQVTVSS,high polyreactivity
21,QVQLVESGGGLVQAGGSLRLSCAASGRTFGSNAMGWYRQAPGKERELVAAISVRGGRTYSADSVKGRFTISRDNAKNTVSLQMNSLKPEDTAVYYCAADPYPISKYWFYHAVDYDSWGQGTQVTVSS,high polyreactivity
22,QVQLVESGGGLVQAGGSLRLSCAASGRTFGSNTMGWYRQAPGKERELVAAISGTGTSTYYADSVKGRFTISRDNAKNTVYLQMNSLKQEDTAVYYCAAGWYKYLFQPHDYWGQGTQVTVSS,low polyreactivity

row,Sequence,polyreactivity (PSR sort gate)
1,QVQLVESGGGLVQAGGSLRLSCAASGRTFGSYVMVWYRQAPGKEREFVAVISGSVGSTYYADSVKGRFTISRDNAKNTVYLQMNSLKPEDTAVYYCARRGIRTSETKQYHQYNYWGQGTQVTVSS,low polyreactivity
2,QVQLVESGGGLVQAGGSLRLSCAASGRTFGTNTMGWYRPAPGKERELVAAISRSGVRTYYADSVKGRFTISRDNAKNTVYLQMKSLKPEDTAVYYCATDYKVHGFDYWGQGTQVTVSS,high polyreactivity
3,QVQLVESGGGLVQAGGSLRLSCAASGRTFGTYAMGWYIQAPGKERELVAAIRSNAGSTYYADSVKGRFTISRDNAKNTVYLQMNSLKPEDNAVYYCAKSYRCSRRYNYWGQGTQVTVSS,high polyreactivity
4,QVQLVESGGGLVQAGGSLRLSCAASGRTFGTYAMGWYRQAPGKERELVAAISTRDGSTYYADSVKGRFTISRDNAKNTVYLQMNSLKPEDTAVYYCNATWSVPSGQYDYWGQGTQVTVSS,low polyreactivity
5,QVQLVESGGGLVQAGGSLRLSCAASGRTFGTYAMGWYRQAPGKERELVARISYTGGSTSYADSVKGRFTISRDNAKNTVYLQMNSLKPEDTAVYYCNASSRSGSWRFYYWGQGTQVTVSS,high polyreactivity
6,QVQLVESGGGLVQAGGSLRLSCAASGRTFGTYAMGWYRQEPGKERELFATISSGGSTYYADSVKGRFTISRDNAKNTVYLLMNSLKPEDTAVYYCAAYRYFRPGDYWGQGTQVNVSS,low polyreactivity
7,QVQLVESGGGLVQAGGSLRLSCAASGRTFGTYVMGWYRQAPGKERELVAAITGSGGSTYYADSVKGRFTISRDNAKNTVYLQMNSLKPEDPAVYYCAARAYQHYNWGQGTQVTVSS,high polyreactivity
8,QVQLVESGGGLVQAGGSLRLSCAASGRTFGVNAMGWYRQAPRKERELVARIRVSGGRTYYADSVKGRFTISRDNAKNSVYLLMNSLKPEDTAVYYCNAGDTYNRVIWPYYYCGQGTQVTVSS,high polyreactivity
9,QVQLVESGGGLVQAGGSLRLSCAASGRTFGVYAMGWYRQAPGKERELVAAIRWSGGGTYYADSVKGRFTISPDNAKNTVYLQMNSLKPEDTAVYYCAATFQNSPYTRYTDMYYWGQGTQVTVSS,low polyreactivity
10,QVQLVESGGGLVQAGGSLRLSCAASGRTFGVYAMGWYRQAPGKERELVAAISKSDGSTYYADSVKGRFTISRDNAKNTVYLQMNSLKPEDTAVYYCATVTRHQRDTQYDYWGQGTQVTVSS,low polyreactivity
11,QVQLVESGGGLVQAGGSLRLSCAASGRTFGVYAMGWYRQAPGKERELVAGIRWRGGSTYYADSVKGRFTISRDNAKNTVYLQMNSLKPEDTAVYYCAAKVYYLYDSIWAWVIIRYDYWGQGTQVTVSS,low polyreactivity
12,QVQLVESGGGLVQAGGSLRLSCAASGRTFGVYAMGWYRQAPGKERELVATIRRGGSTYYADSVKGRFTISRDNAKNTVYLQMNSLKPEDTAVYYCNASHVTWNRKYDYWGQGTQVTVSS,low polyreactivity
13,QVQLVESGGGLVQAGGSLRLSCAASGRTFGVYAMGWYRQAPGKERELVPAIRWSGGGTYYADSVKGRFTISRDTAKNTVYVQMNSLKPEDTAVYYCAASFQNSPYTRYTDMYYWGQGTQVTVTS,low polyreactivity
14,QVQLVESGGGLVQAGGSLRLSCAASGRTFGVYMGWYRQAPGKERELVAVISSGDSTNYADSVKGRFTISRDNAKNTVYLQMNSLKPEDTAVYYCNAYGSDRLTLDDYWGQGTQVTVSS,low polyreactivity
15,QVQLVESGGGLVQAGGSLRLSCAASGRTFGWNAMGWSRQAPGKERELVAAISRTGNTYYADSVKGRFTISRDNAKNTVYLQMNSLKPEDTAVYYCAKGRYYTPTYFRGVDLYDYWGQGTQVTVSS,low polyreactivity
16,QVQLVESGGGLVQAGGSLRLSCAASGRTFGWNAMGWYIQAPGKERELVAAITSGGSTSYADSVKGRFTISRDNEKNTVYLQMNCLKPEDTAVYYCAAYLGIYSRVNYWGQGTQVTVSS,low polyreactivity
17,QVQLVESGGGLVQAGGSLRLSCAASGRTFGWNVMGWYRQAPGKERELVAAISGGGTSTYYADSVKGRFTISRDNAKNTVYLQMNSLKPEDTGVYYCNAYYPGSYYPRSGRYDYWGQGTQVTVSS,high polyreactivity
18,QVQLVESGGGLVQAGGSLRLSCAASGRTFGWNVMGWYRQAPGKERELVAAISGSGASTYYADSVKGRFTISRDNAKNTVYLQMNSLKPEDTAVYYCAAVQGYRFYEYYYWGQGTKVTVSS,low polyreactivity
19,QVQLVESGGGLVQAGGSLRLSCAASGRTFGYAMGWYRQAPGKERERVAAISSGGGRTYYADSVKGRFTISRDNAKNTVYLQMNSLKPEDTAVFYCNARHIFGASRRARFGYWGQGTQVTVSS,high polyreactivity
20,QVQLVESGGGLVQAGGSLRLSCAASGRTFGYNAMAWYRQAPRKERELVAAISRGGSTNYADSVKGRFTISRDNAKNTVYLQMNSLKPEDTAVYYCAAYDWRVLWGYDYWGQGTQVTVSS,low polyreactivity
21,QVQLVESGGGLVQAGGSLRLSCAASGRTFGYNAMGWYRQAPGKERELVAAINDGGSTNYADSVKGRFTISRDNAKNTVYLQMNSLKPEDTAVYYCATDFSNGRQSTFPYEYYYWGQGTQVTVSS,high polyreactivity
